{"source": "paper PMC7156504", "about": "“An in vivo platform to select and evolve aggregation-resistant proteins” (Nature Communications, 2020)", "binders": {"B1": {"name": "IgG STT (scFv STT) (antibody, V domains shown)", "VH": "QVQLVQSGAEVKKPGSSVKVSCKASGGTFSTGAFTWVRQAPGQGLEWMGGIIPIFGLTNLAQNFQGRVTITADESTSTVYMELSSLRSEDTAVYYCARSSRIYDLNPSLTAYYDMDVWGQGTMVTVSS", "VL": "QSVLTQPPSVSAAPGQKVTISCSGSSSDIGNNYVSWYQQLPGTAPKLLIYDNNKRPSGIPDRFSGSKSGTSATLGITGLQTGDEADYYCGTWDSSLSAWVFGGGTKLTVL"}, "B2": {"name": "DyLight650-labelled IgGWFL (antibody, V domains shown)", "VH": "B1 VH with S30W, T31F", "VL": "B1 VL", "notes": "as the VH of m1; human IgG1 heavy chain constant region of the TM-YTE IgG1 expression vector; as the VL of m1; human light chain constant region of the expression vector; same protein as m1; also called labelled MEDI1912; source: HEK293/EBNA, co-transfected, purified from the culture medium (Protein A); labelled with DyLight650"}, "B3": {"name": "evolved scFvWFL variant 16 reformatted as IgG1 (antibody, V domains shown)", "VH": "B1 VH with S30W, T31S, F55S, V79A", "VL": "B1 VL with F101I", "notes": "human IgG1 heavy chain constant region of the TM-YTE IgG1 expression vector; human light chain constant region of the expression vector; IgG1, TM-YTE backbone; selected by the TPBLA from an error-prone PCR library of scFvWFL; source: HEK293/EBNA, co-transfected, purified from the culture medium (Protein A)"}, "B4": {"name": "evolved scFvWFL variant 139 reformatted as IgG1 (antibody, V domains shown)", "VH": "B1 VH with S25G, S30W, T31S, I102T", "VL": "B1 VL with S71T", "notes": "human IgG1 heavy chain constant region of the TM-YTE IgG1 expression vector; human light chain constant region of the expression vector; IgG1, TM-YTE backbone; the best performing variant of the screen; source: HEK293/EBNA, co-transfected, purified from the culture medium (Protein A)"}, "B5": {"name": "MEDI578 (the parent antibody prior to affinity maturation into MEDI1912) (antibody, V domains shown)", "VH": "B1 VH with G32Y, A33G, F34I, T35S, G56D, L57T, T58G, L60S, N63S, V79A", "VL": "B1 VL with D28N", "notes": "VH of MEDI578; VL of MEDI578; The entry is printed as 5J7Z in the methods; also called IgG_(MEDI578)"}, "B6": {"name": "evolved scFvWFL variant 11 reformatted as IgG1 (antibody, V domains shown)", "VH": "B1 VH with Q6R, S30W, T31F, T110A", "VL": "B1 VL with S21P, I76V", "notes": "as for B3"}, "B7": {"name": "evolved scFvWFL variant 176 reformatted as IgG1 (antibody, V domains shown)", "VH": "B1 VH with Q6R, S30W, T31F", "VL": "B1 VL", "notes": "as for B3"}, "B8": {"name": "evolved scFvWFL variant 37 reformatted as IgG1 (antibody, V domains shown)", "VH": "B1 VH with Q6P, S30W, T31F, I54T", "VL": "B1 VL with S25P", "notes": "retains W35, F36 and L64; human IgG1 heavy chain constant region of the TM-YTE IgG1 expression vector; human light chain constant region of the expression vector; IgG1, TM-YTE backbone; retains the original WFL residues (W35, F36 and L64); source: HEK293/EBNA, co-transfected, purified from the culture medium (Protein A)"}, "B9": {"name": "evolved scFvWFL variant 59 reformatted as IgG1 (antibody, V domains shown)", "VH": "B1 VH with S30R, T31F, V37A, V68A", "VL": "B1 VL with I49T, D61G", "notes": "as for B3"}, "B10": {"name": "evolved scFvWFL variant 128 reformatted as IgG1 (antibody, V domains shown)", "VH": "B1 VH with S30W, T31F, Y112D", "VL": "B1 VL with K17E, L40P, T43A", "notes": "as for B8"}, "B11": {"name": "evolved scFvWFL variant 72 reformatted as IgG1 (antibody, V domains shown)", "VH": "B1 VH with F29S, S30W, T31F, I51T, E89D, D116G", "VL": "B1 VL with N31D", "notes": "as for B3"}, "B12": {"name": "evolved scFvWFL variant 126 reformatted as IgG1 (antibody, V domains shown)", "VH": "B1 VH with S30W, T31F, I51F, F55S", "VL": "B1 VL", "notes": "as for B3"}, "B13": {"name": "evolved scFvWFL variant 130 reformatted as IgG1 (antibody, V domains shown)", "VH": "B1 VH with T28A, S30W, T31F, I52T, L57H", "VL": "B1 VL", "notes": "as for B3"}}, "note": "Residue numbers refer to the chain shown, from its start."}
{"molecular_target": "T1, biotinylated nerve growth factor (NGF) (Homo sapiens, UniProt P01138, biotin (biotinylated in-house, sites not stated))", "T1 sequence (P01138 122-241)": "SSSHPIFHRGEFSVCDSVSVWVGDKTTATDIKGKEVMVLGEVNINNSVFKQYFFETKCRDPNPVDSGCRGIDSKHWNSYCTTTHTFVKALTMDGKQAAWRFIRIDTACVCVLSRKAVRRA", "assay": "not given", "settings": "not given"}
{"binder": "B1", "binding result": "binds"}
{"molecular_target": "T1, biotinylated nerve growth factor (NGF)", "assay": "AlphaScreen or HTRF; epitope competition assay: biotinylated NGF (detected by streptavidin Europium cryptate) and DyLight650-labelled IgGWFL with increasing concentrations of test IgG; relative affinity", "settings": "both partners purified"}
{"binder": "B2", "binding result": "binds"}
{"binder": "B3", "binding result": "binds"}
{"binder": "B4", "binding result": "binds"}
{"binder": "B5", "binding result": "binds"}
{"binder": "B6", "binding result": "binds"}
{"binder": "B7", "binding result": "binds"}
{"binder": "B8", "binding result": "binds"}
{"binder": "B9", "binding result": "binds"}
{"binder": "B10", "binding result": "binds"}
{"binder": "B11", "binding result": "binds"}
{"binder": "B12", "binding result": "binds"}
{"binder": "B13", "binding result": "binds"}
